{"source": "paper PMC4718629", "about": "“Molecular Determinants of GS-9620-Dependent TLR7 Activation” (PLoS ONE, 2016)", "proteins": {"B1": {"name": "full-length recombinant human TLR7 (residues 27-1049) with N-terminal 6HIS tag (receptor, UniProt Q9NYK1 27-1049, looked up)", "chain": "ARWFPKTLPCDVTLDVPKNHVIVDCTDKHLTEIPGGIPTNTTNLTLTINHIPDISPASFHRLDHLVEIDFRCNCVPIPLGSKNNMCIKRLQIKPRSFSGLTYLKSLYLDGNQLLEIPQGLPPSLQLLSLEANNIFSIRKENLTELANIEILYLGQNCYYRNPCYVSYSIEKDAFLNLTKLKVLSLKDNNVTAVPTVLPSTLTELYLYNNMIAKIQEDDFNNLNQLQILDLSGNCPRCYNAPFPCAPCKNNSPLQIPVNAFDALTELKVLRLHSNSLQHVPPRWFKNINKLQELDLSQNFLAKEIGDAKFLHFLPSLIQLDLSFNFELQVYRASMNLSQAFSSLKSLKILRIRGYVFKELKSFNLSPLHNLQNLEVLDLGTNFIKIANLSMFKQFKRLKVIDLSVNKISPSGDSSEVGFCSNARTSVESYEPQVLEQLHYFRYDKYARSCRFKNKEASFMSVNESCYKYGQTLDLSKNSIFFVKSSDFQHLSFLKCLNLSGNLISQTLNGSEFQPLAELRYLDFSNNRLDLLHSTAFEELHKLEVLDISSNSHYFQSEGITHMLNFTKNLKVLQKLMMNDNDISSSTSRTMESESLRTLEFRGNHLDVLWREGDNRYLQLFKNLLKLEELDISKNSLSFLPSGVFDGMPPNLKNLSLAKNGLKSFSWKKLQCLKNLETLDLSHNQLTTVPERLSNCSRSLKNLILKNNQIRSLTKYFLQDAFQLRYLDLSSNKIQMIQKTSFPENVLNNLKMLLLHHNRFLCTCDAVWFVWWVNHTEVTIPYLATDVTCVGPGAHKGQSVISLDLYTCELDLTNLILFSLSISVSLFLMVMMTASHLYFWDVWYIYHFCKAKIKGYQRLISPDCCYDAFIVYDTKDPAVTEWVLAELVAKLEDPREKHFNLCLEERDWLPGQPVLENLSQSIQLSKKTVFVMTDKYAKTENFKIAFYLSHQRLMDEKVDVIILIFLEKPFQKSKFLQLRKRLCGSSVLEWPTNPQAHPYFWQCLKNALATDNHVAYSQVFKETV", "notes": "human Toll-like receptor 7 (TLR7), residues 27-1049; also called recTLR7; recombinant TLR7"}}, "target": "the molecule itself", "experiment": "SEC; purified recombinant full-length TLR7 run against calibration standards (670, 158, 44, 17 and 1.35 kDa); solubilized with Fos-Choline 14"}
{"protein": "B1", "values": [{"measurement": "stoichiometry N", "value": 2}]}
